Laboratory results: patent US12099068B2, “Biomarkers for graft-versus-host disease” (Incyte Corporation, priority 2018, dated 2024)

B1: INPPL1 (protein, UniProt O15357 1-1258, looked up)
Phosphatidylinositol …: MASACGAPGPGGALGSQAPSWYHRDLSRAAAEELLARAGRDGSFLVRDSESVAGAFALCVLYQKHVHTYRILPDGEDFLAVQTSQGVPVRRFQTLGELIGLYAQPNQGLVCALLLPVEGEREPDPPDDRDASDGEDEKPPLPPRSGSTSISAPTGPSSPLPAPETPTAPAAESAPNGLSTVSHDYLKGSYGLDLEAVRGGASHLPHLTRTLATSCRRLHSEVDKVLSGLEILSKVFDQQSSPMVTRLLQQQNLPQTGEQELESLVLKLSVLKDFLSGIQKKALKALQDMSSTAPPAPQPSTRKAKTIPVQAFEVKLDVTLGDLTKIGKSQKFTLSVDVEGGRLVLLRRQRDSQEDWTTFTHDRIRQLIKSQRVQNKLGVVFEKEKDRTQRKDFIFVSARKREAFCQLLQLMKNKHSKQDEPDMISVFIGTWNMGSVPPPKNVTSWFTSKGLGKTLDEVTVTIPHDIYVFGTQENSVGDREWLDLLRGGLKELTDLDYRPIAMQSLWNIKVAVLVKPEHENRISHVSTSSVKTGIANTLGNKGAVGVSFMFNGTSFGFVNCHLTSGNEKTARRNQNYLDILRLLSLGDRQLNAFDISLRFTHLFWFGDLNYRLDMDIQEILNYISRKEFEPLLRVDQLNLEREKHKVFLRFSEEEISFPPTYRYERGSRDTYAWHKQKPTGVRTNVPSWCDRILWKSYPETHIICNSYGCTDDIVTSDHSPVFGTFEVGVTSQFISKKGLSKTSDQAYIEFESIEAIVKTASRTKFFIEFYSTCLEEYKKSFENDAQSSDNINFLKVQWSSRQLPTLKPILADIEYLQDQHLLLTVKSMDGYESYGECVVALKSMIGSTAQQFLTFLSHRGEETGNIRGSMKVRVPTERLGTRERLYEWISIDKDEAGAKSKAPSVSRGSQEPRSGSRKPAFTEASCPLSRLFEEPEKPPPTGRPPAPPRAAPREEPLTPRLKPEGAPEPEGVAAPPPKNSFNNPAYYVLEGVPHQLLPPEPPSPARAPVPSATKNKVAITVPAPQLGHHRHPRVGEGSSSDEESGGTLPPPDFPPPPLPDSAIFLPPSLDPLPGPVVRGRGGAEARGPPPPKAHPRPPLPPGPSPASTFLGEVASGDDRSCSVLQMAKTLSEVDYAPAGPARSALLPGPLELQPPRGLPSDYGRPLSFPPPRIRESIQEDLAEEAPCLQGGRASGLGEAGMSAWLRAIGLERYEEGLVHNGWDDLEFLSDITEEDLEEAGVQDPAHKRLLLDTLQLSK
B2: CD177 (protein, UniProt Q8N6Q3 22-408, looked up)
CD177 antigen: LLCQFGTVQHVWKVSDLPRQWTPKNTSCDSGLGCQDTLMLIESGPQVSLVLSKGCTEAKDQEPRVTEHRMGPGLSLISYTFVCRQEDFCNNLVNSLPLWAPQPPADPGSLRCPVCLSMEGCLEGTTEEICPKGTTHCYDGLLRLRGGGIFSNLRVQGCMPQPGCNLLNGTQEIGPVGMTENCNRKDFLTCHRGTTIMTHGNLAQEPTDWTTSNTEMCEVGQVCQETLLLLDVGLTSTLVGTKGCSTVGAQNSQKTTIHSAPPGVLVASYTHFCSSDLCNSASSSSVLLNSLPPQAAPVPGDRQCPTCVQPLGTCSSGSPRMTCPRGATHCYDGYIHLSGGGLSTKMSIQGCVAQPSSFLLNHTRQIGIFSAREKRDVQPPASQHEGG
B3: KLRD1 (protein, UniProt Q13241 1-179, looked up)
Natural killer cells antigen …: MAVFKTTLWRLISGTLGIICLSLMSTLGILLKNSFTKLSIEPAFTPGPNIELQKDSDCCSCQEKWVGYRCNCYFISSEQKTWNESRHLCASQKSSLLQLQNTDELDFMSSSQQFYWIGLSYSEEHTAWLWENGSALSQYLFPSFETFNTKNCIAYNPNGNALDESCEDKNRYICKQQLI
B4: VEGFD (protein, UniProt O43915 89-205, looked up)
Vascular endothelial growth …: FAATFYDIETLKVIDEEWQRTQCSPRETCVEVASELGKSTNTFFKPPCVNVFRCGGCCNEESLICMNTSTSYISKQLFEISVPLTSVPELVPVKVANHTGCKCLPTAPRHPYSIIRR

Test system: plasma proteins
Assay: Plasma proteins modulated between baseline and day 28 in responders (CR, VGPR, PR; n = 19), Example 6 (Table 13)
Type: in vivo, human
Details: plasma protein (OLINK NPX); responders (CR, VGPR, PR; n = 19); itacitinib 200 mg or 300 mg QD with corticosteroids; day 28 vs baseline
Method in brief: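 Longitudinal comparison, day 28 versus baseline, with steroid-naive (N=10) and steroid-refractory (N=18) patients combined. Proteins measured by OLINK proximity extension, log2 normalized protein expression. Differences tested by t tests, ANOVA, Pearson correlation, P<0.05 significant.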

Row | Molecule | Fold Change, Decreased Expression from Baseline to Day 28 | Fold Change, Increased Expression from Baseline to Day 28
1 | B1 | −1.7131 | –
2 | B2 | −1.768 | –
3 | B3 | −1.8117 | –
4 | B4 | – | 1.147
